Measured values published in US20090238754A1, “USE OF PYRENE TO CARRY PEPTIDES ACROSS THE BLOOD BRAIN BARRIER” (Adlyfe, Inc., priority 2008, published 2009).
pyrene = pyrene label

Legend:
Type in all cases: in vivo
[1] = Clearance of conjugate determined by analysis of cerebrospinal fluid; conditions: 6 hours post-administration; CSF revealed no evidence of circulating conjugate
Procedure: The rate of localization and clearance or degradation of a conjugate can be assessed experimentally, for example, by administering the conjugates to mice and sacrificing them for analysis at different times post-administration, such as at time periods including 2 minutes, 10 minutes, 30 minutes, 60 minutes, 1 hour, 2 hours, 3 hours, 4 hours, 5 hours, 6 hours, or longer, post-administration.

[2] = molecular target: T1, Aβ plaques (Homo sapiens, UniProt P05067); assay: Fluorescent labeling of Aβ plaques in brain after intranasal administration to hAPP transgenic mice (Example 2); conditions: for fluorescent labeling of Aβ plaques (FIG. 1): three 10 μl injections at 20 minute intervals, sacrificed 6 hours later, hAPP transgenic mice
T1 construct: from tissue; host or cells: brain of living hAPP transgenic mice (in vivo dosing, brain sections imaged)
T1 sequence (P05067 672-713 limits assumed): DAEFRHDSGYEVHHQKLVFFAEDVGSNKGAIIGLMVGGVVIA
Procedure: Three groups of three hAPP transgenic mice were treated with vehicle (10% DMSO), the Aβ peptide-agent conjugate described above, or pyrene butyrate. Mice received three 10 μl injections at 20 minute intervals over a one hour period. Mice were sacrificed 6 hours later and tissues were collected. Flourescence in sagital sections was performed using fixed frozen tissue and a UV-2A fileter-equipped microscope. All plaque counts were performed on a digital images using Image-Pro-Plus software (Media Cybernetics, Inc., Bethesda, Md.).

[3] = molecular target: T1, Aβ plaques; assay: Intranasal administration of peptide agent conjugate to hAPP751SL transgenic mice and littermate controls, brain fluorescence imaging (Example 1)
Description: The following illustrates the ability of peptide agent conjugates to target Aβ plaques (e.g., insoluble self-aggregates of Aβ protein associated with Alheimer's disease) in vivo. A peptide agent specific for Aβ corresponding to residues 16-35 of the Aβ protein (SEQ ID NO:3) with an added C-terminal lysine residue (e.g., SEQ ID NO:5) for conjugating pyrene, and labeled at each terminus with pyrene is used.
In vivo studies use four homozygous hAPP751SL transgenic 10 month old mice and four littermate controls (siblings not carrying the transgene). The labeled peptide agent conjugate is administered intranasally, at 10 μl liquid per administration (at concentrations of from 0.1 to 2.0 mg/ml) with an administration interval of a planned half of an hour, adjusted according to the condition of the animal after treatment.
At the end of the treatment, mice are sacrificed and CSF and brains are extracted. (All mice are sedated by standard inhalation anaesthesia, Isofluran, Baxter).
Cerebrospinal fluid is obtained by blunt dissection and exposure of the foramen magnum. Upon exposure, a Pasteur pipette is inserted to the approximate depth of 0.3-1 mm into the foramen magnum. CSF is collected by suctioning and capillary action until flow fully ceases. CSF is immediately frozen and kept at −80° C. until use.
After CSF sampling, the stomach, stomach content and the brains are rapidly removed. Brains are hemisected, and the right hemisphere of all mice are immersion fixed in freshly produced 4% Paraformaldehyde/PBS (pH 7.4) for one hour at room temperature, and transferred to a 15% sucrose/PBS solution for 24 hours to ensure cryoprotection. Thereafter, brains are frozen in liquid isopentane on the next day and stored at −80° C. until used for histological investigations. The other brain half is immediately shock frozen in liquid isopentane for future use.
To assess the specifity of staining by the peptide agent conjugate, fluorescence is excited using a UV-2A and B-1E filter of a microscope to detect probable auto-fluorescence in the lower spectrum. […]

[4] = molecular target: T1, Aβ plaques; assay: Fluorescent labeling of Aβ plaques in brain after intravenous administration to hAPP transgenic mice (Example 3); conditions: intravenous 30 mg/kg, tail vein, 6 hours after administration
Procedure: hAPP transgenic mice were administered the Aβ peptide-agent conjugate described above intravenously at a dose of 30 mg/kg through the tail vein. Mice were sacrificed at 6 hours after the administration of the conjugate, and brain sections were prepared for imaging as described above. After a section was imaged for conjugate fluorescence, it was bleached of fluorescence and stained with a Thioflavin S stain.

Row | Substance | clearance, as determined by analysis of cerebrospinal fluid [1] | correlation between conjugate fluorescence and Thioflavin S staining ([2]; hippocampus (data not shown)) | coincidence of conjugate fluorescence with 6E10 antibody and Thioflavin S plaque staining ([2]; sequential sagital brain sections, co-merged images) | fluorescent labeling of Aβ plaques (FIG. 1) [2] | binding to amyloid in the brain ([3]; hAPP751SL transgenic mice) | localization and binding in the brain ([3]; nontransgenic mice) | crossing of the blood-brain barrier (BBB) ([3]; transgenic mice treated with the highest dose, brain images vs control mice and transgenic vehicle control) | correlation between conjugate fluorescence and Thioflavin S staining ([4]; cortex (FIG. 3A)) | correlation between conjugate fluorescence and Thioflavin S staining ([4]; hippocampus (FIG. 3B))
1 | AD185: Peptide of residues 16-35 of the Aβ protein with added C-terminal lysine (SEQ ID NO:5), labeled at each terminus with pyrene (pyrene-KLVFFAEDVGSNKGAIIGLMK-pyrene) | cleared | positive correlation | coincided with the antibody and Thioflavin S plaque staining | showed fluorescent labeling of Aβ plaques | binds to the amyloid and agglomerates outside the blood vessel in the brain | reaches the olfactory bulb, but does not bind to a specifiable morphological structure | crosses the blood-brain barrier | significant correlation | significant correlation
2 | pyrene butyrate [reference compound] | – | – | – | did not | – | – | – | – | –
